B1: aldolase A: purified human aldolase A (purity >95%), glycolytic enzyme (protein, UniProt P04075 2-364, looked up)
Fructose-bisphosphate …: PYQYPALTPEQKKELSDIAHRIVAPGKGILAADESTGSIAKRLQSIGTENTEENRRFYRQLLLTADDRVNPCIGGVILFHETLYQKADDGRPFPQVIKSKGGVVGIKVDKGVVPLAGTNGETTTQGLDGLSERCAQYKKDGADFAKWRCVLKIGEHTPSALAIMENANVLARYASICQQNGIVPIVEPEILPDGDHDLKRCQYVTEKVLAAVYKALSDHHIYLEGTLLKPNMVTPGHACTQKFSHEEIAMATVTALRRTVPPAVTGITFLSGGQSEEEASINLNAINKCPLLKPWALTFSYGRALQASALKAWGGKKENLKAAQEEYVKRALANSLACQGKYTPSGQAGAAASESLFVSNHAY

Assays:
[1] = test system: spontaneously developed mammary tumors; test: NIR-imaging of transgenic mice; type: in vivo; settings: 5 mg/kg once, imaged after 24 h
Experimental: FIG. 29A-29C: Effect of azurin from P. aeruginosa in a transgenic animal model. 29A. Near-infrared red (NIR) dye-conjugated azurin or PBS was injected i.v. into transgenic mice that spontaneously develop mammary tumors. Twenty-four hours after azurin injection, mice were imaged with a photodynamic eye (PDE) system (left: photographic image, right: NIR fluorescence image at 800 nm). 29B. At the end of the study, the tumors were resected.
NIR-imaging of transgenic mice: Near infrared red fluorescent dye (IR800, Licor, NE) was conjugated to azurin according to the manufacturer instructions. Transgenic mice with spontaneously developed mammary tumours received NIR dye conjugated azurin at 5 mg/kg once i.p. After 24 h, specific fluorescence signal at 800 nm was recorded by the PDE-neo® NIR camera system (Hamamatsu photonics, Mitaka-USA).

[2] = test system: P. aeruginosa; test: Azurin secretion by P. aeruginosa treated with purified aldolase A (western blot); type: cell-based, Pseudomonas aeruginosa; settings: 30 min
Experimental: FIG. 18A-18G: Induction of aldolase A secretion by host cells in the presence of P. aeruginosa. 18A. Human host cells (cancer and normal) and P. aeruginosa were co-incubated for 30 min at a concentration of 500,000 human cells/ml with P. aeruginosa at OD=0.3. Aldolase secretion varied between the co-cultures with cancer and normal cells. […] 18B Correlation between the aldolase A and azurin levels in co-cultures of P. aeruginosa with cancer or normal cells. 18C Cancer cells (Mel-2 and MDA-MB-231) and P. aeruginosa (WT and azunull mutant) were co-incubated for 30 min at a concentration of 500,000 human cells/ml with P. aeruginosa at OD=0.3. Secretion of aldolase into the culture supernatant was assessed by western blot analysis. 18D P. aeruginosa (OD=0.3) was treated with purified aldolase A protein at concentrations of 1 nM, 10 nM, 100 nM, and 1 μM for 30 min. […]
Western blotting: After running the NuPAGE, proteins were transferred to PVDF membranes (BioRad Laboratories Inc, Hercules, CA) which were blocked in SuperBlock (T20 TBS buffer, Thermo Fisher) for one hour. […] The signal was detected using enhanced chemiluminescence (ECL, Thermo Fisher Scientific). Quantitative analysis of the bands was performed with a computer-assisted imaging densitometer (UN-SCAN-IT gel version 5.1).

[3] = test system: MDA-MB-231 cells; test: Host cell adhesion assay, P. aeruginosa on MDA-MB-231 cells; type: cell-based, human
Experimental: (§1) FIG. 24A-24E: 24A—Adherence assays were performed essentially as previously described38. Monolayer MDA-MB-231 (red) and Mel-2 (blue) cells were compared to siRNA-induced silencing of aldolase gene in the cancer cell lines (+) when they were co-incubated with P. aeruginosa for 2 h. To assess total cell association, monolayers were washed to remove unbound P. aeruginosa and were then disrupted and homogenized in 0.10% saponin/PBS. P. aeruginosa cells were counted by serial dilution of the homogenized suspensions and subsequent determination of colony-forming units (CFU) by plating on LB agar. Control (−) expressed as 100%. Mean±SE, *P<0.05. 24B—Monolayer MDA-MB-231 (red) and Mel-2 (blue) cells were co-incubated with P. aeruginosa in the presence or absence of exogenous aldolase A for 2 h. Similar to above, total P. aeruginosa association on cancer cells were counted by plating on LB agar. Control (0 μM aldolase A) expressed as 100%. […] Total P. aeruginosa association on cancer cells were counted by plating on LB agar. *P<0.05, NS: not significant. […] The mean+SE values were calculated.
(§2) Host cell adhesion assay: The assays were performed essentially as described before38. […] Control values of CFU/ml expressed as 100%. siRNA-induced silencing of aldolase and MUC1 genes in MDA-MB-231 and Mel2 cells as conducted as described previously80,81. […]

[4] = test system: Mel-2 cells; test: Host cell adhesion assay, P. aeruginosa on Mel-2 cells; type: cell-based, human
Experimental: as §1, §2

Molecule | tumor localization (NIR fluorescence at 800 nm) [1] | azurin secretion by P. aeruginosa (western blot) ([2]; P. aeruginosa OD=0.3, 1 μM aldolase A) | azurin secretion by P. aeruginosa (western blot) ([2]; P. aeruginosa OD=0.3, purified aldolase A 1 nM-1 μM) | aldolase A concentration at which increase of adherence is saturable ([3]; MDA-MB-231, 2 h) [µM] | adherence of P. aeruginosa to cancer cells ([3]; MDA-MB-231, exogenous aldolase A, 2 h) | aldolase A concentration at which increase of adherence is saturable ([4]; Mel-2, 2 h) [µM] | adherence of P. aeruginosa to cancer cells ([4]; Mel-2, exogenous aldolase A, 2 h)
NIR dye-conjugated azurin: azurin conjugated to near infrared red fluorescent dye IR800 | preferentially localized to spontaneously developed mammary tumors | – | – | – | – | – | –
B1 | – | stimulated azurin secretion | induced azurin secretion | > 1 | significantly increased adherence to cancer cells | > 1 | significantly increased adherence to cancer cells

Reference: US20250179126A1, “A NOVEL PEPTIDE FROM A PHOTOSYNTHETIC BACERIUM DIRECTLY TARGETS MITOCHONDRIA TO TRIGGER APOPTOSIS IN ADVANCED PROSTATE CANCER CELLS” (priority 2022, published 2025)
